Measured values taken from US20240309109A1 (MorphoSys, published 2024).

How the values were obtained:
[1] = target: T1, human CD38 Fc-fusion aa 45-300 (human, UniProt P28907 45-300); test: ELISA on CD38 Fc-fusion protein, IgG format
T1 construct: Expressed in HEK293 behind a human Vkappa leader, which is left out here; also called CD38-Fc fusion protein; CD38 Fc-Fusion protein

[2] = target: T1, human CD38 Fc-fusion aa 45-300; test: SPR (Biacore), Fab on immobilized CD38 Fc-fusion
Experimental: The Biacore studies were performed on directly immobilized antigen (CD38-Fc fusion protein).
The kinetic constants kₒₙ and koff were determined with serial dilutions of the respective Fab binding to covalently immobilized CD38-Fc fusion protein using the BIAcore 3000 instrument (Biacore, Uppsala, Sweden). For covalent antigen immobilization standard EDC-NHS amine coupling chemistry was used. For direct coupling of CD38 Fc-fusion protein CM5 senor chips (Biacore) were coated with ˜600-700 RU in 10 mM acetate buffer, pH 4.5. For the reference flow cell a respective amount of HSA (human serum albumin) was used. […] Injection time for each concentration was 1 min, followed by 2 min dissociation phase. For regeneration 5 μl 10 mM HCl was used. All sensograms were fitted locally using BIA evaluation software 3.1 (Biacore).

human CD38 on cells [3] = target: T2, human CD38 on cells (human, UniProt P28907 1-300); test: FACS Scatchard, IgG1 on Raji cells
T2 construct: The cell that carried CD38 is named under assay in each row; also called CD38 on Raji, RPMI8226, OPM2, CCRF-CEM, human erythrocytes, CD38 CHO-K1 transfectants

human CD38 on cells [4] = target: T2, human CD38 on cells; test: FACS Scatchard on OPM2 cells, IgG format

| Binder | ELISA CD38 Fc-Fusion protein (% Reactivity of MOR03087) [1] [%] | Kd [2] [nM] | EC50 (human CD38 on cells [4]) [nM] | other results |
| --- | --- | --- | --- | --- |
| MOR03102 Fab (Fab, V domains shown, Fab format) VH: QVQLQESGPGLVKPGETLSLTCTVSGGSISGNYWSWIRQAPGKGLEWIGDYHGSTYYNPSLKGRVTISVDTSKNQFSLKLSSVTAEDTAVYYCAREQYHWGLAWTGFDNWGQGTLVTVSS VL: DIELTQPPSVSVAPGQTARISCSGDNLGHYYVSWYQQKPGQAPVLVIYDDSDRPSGIPERFSGSNSGNTATLTISGTQAEDEADYYCGAYAMHMTVFGGGTKLTVLG |  | 64 |  |  |
| MOR03102 IgG1 (antibody, V domains shown) VH: QVQLQESGPGLVKPGETLSLTCTVSGGSISGNYWSWIRQAPGKGLEWIGDYHGSTYYNPSLKGRVTISVDTSKNQFSLKLSSVTAEDTAVYYCAREQYHWGLAWTGFDNWGQGTLVTVSS VL: DIELTQPPSVSVAPGQTARISCSGDNLGHYYVSWYQQKPGQAPVLVIYDDSDRPSGIPERFSGSNSGNTATLTISGTQAEDEADYYCGAYAMHMTVFGGGTKLTVLG |  |  |  | Kd (human CD38 on cells [3]): 5 nM |
| MOR03089 Fab (Fab, V domains shown, Fab format) VH: QVQLKESGPALVKPTQTLTLTCTFSGFSLSSDGMGVGWIRQPPGKALEWLALIDWDDDKRYSTSLKTRLTISKDTSKNQVVLTMTNMDPVDTATYYCARFNWFYRLAFVNPDVWGQGTLVTVSS VL: not shown |  | 340 |  |  |
| MOR03081 IgG1 (antibody, V domains shown) VH: QVQLVESGGGLVQPGGSLRLSCAASGFTFSSYALHWVRQAPGKGLEWVSSISGLGSTTYYADSVKGRFTISRDNSKNTLYLQMNSLRAEDTAVYYCARYHYEYHYFSSGFDNWGQGTLVTVSS VL: DIVLTQSPATLSLSPGERATLSCRASQTGSTSYLAWYQQKPGQAPRLLIYDASKRATGVPARFSGSGSGTDFTLTISSLEPEDFATYYCHQYYNVPHTFGQGTKVEIKR |  |  |  | Kd (human CD38 on cells [3]): 2.5 nM |
| MOR03101 Fab (Fab, V domains shown, Fab format) VH: QVQLKESGPALVKPTQTLTLTCTFSGFSLSTSRVGVSWIRQPPGKALEWLAHIDWNDDKYYSTSLKTRLTISKDTSKNQVVLTMTNMDPVDTATYYCAREDRLLGGYGYDVWGQGTLVTVSS VL: DIELTQPPSVSVAPGQTARISCSGDSLGSYYVHWYQQKPGQAPVLVIGDDTKRPSGIPERFSGSNSGNTATLTISGTQAEDEADYYCGSRTGYNNSFVFGGGTKLTVLG |  | 314 |  |  |
| MOR03085 Fab (Fab, V domains shown, Fab format) VH: QVQLVQSGAEVKKPGASVKVSCKASGYTFTGYYINWVRQAPGQGLEWMGWIFPNGGSTGYAQKFQGRVTMTRDTSISTAYMELSSLRSEDTAVYYCARGNIFIFDYWGQGTLVTVSS VL: DIVLTQPPSVSGAPGQRVTISCSGSSSNIGNNYVSWYQQLPGTAPKLLIYGDDQRPSGVPDRFSGSKSGTSASLAITGLQSEDEADYYCQSYGTFSSFVFGGGTKLTVLG |  | 122 |  |  |
| MOR03085 IgG1 (antibody, V domains shown) VH: QVQLVQSGAEVKKPGASVKVSCKASGYTFTGYYINWVRQAPGQGLEWMGWIFPNGGSTGYAQKFQGRVTMTRDTSISTAYMELSSLRSEDTAVYYCARGNIFIFDYWGQGTLVTVSS VL: DIVLTQPPSVSGAPGQRVTISCSGSSSNIGNNYVSWYQQLPGTAPKLLIYGDDQRPSGVPDRFSGSKSGTSASLAITGLQSEDEADYYCQSYGTFSSFVFGGGTKLTVLG |  |  |  | Kd (human CD38 on cells [3]): 10 nM |
| MOR03086 Fab (Fab, V domains shown, Fab format) VH: QVQLVESGGGLVQPGGSLRLSCAASGFTFTSYYMHWVRQAPGKGLEWVSYIDSSGSSTYYADSVKGRFTISRDNSKNTLYLQMNSLRAEDTAVYYCARQLMPFGGYFDVWGQGTLVTVSS VL: DIQMTQSPSSLSASVGDRVTITCRASQNISQWLNWYQQKPGKAPKLLIYGASNLQSGVPSRFSGSGSGTDFTLTISSLQPEDFATYYCQQYYDLPNTFGQGTKVEIKR |  | 30 |  |  |

Second part, led by results:

| ELISA CD38 Fc-Fusion protein (% Reactivity of MOR03087) [1] [%] | Kd [2] [nM] | EC50 (human CD38 on cells [4]) [nM] | Binder | other results |
| --- | --- | --- | --- | --- |
| 56 |  |  | MOR06204 IgG (antibody, V domains shown, copies: 2 + 2) VH: QVQLVESGGGLVQPGGSLRLSCAASGFTFSSYAMNWVRQAPGKGLEWVSHIRKKNTSYTTEYAASVKGRFTISRDNSKNTLYLQMNSLRAEDTAVYYCAREDGSYMTDYFAYWGQGTLVTVSS VL: DIELTQPPSVSVAPGQTARISCSGDNIGHYYVSWYQQKPGQAPVLVIYSDSNRPSGIPERFSGSNSGNTATLTISGTQAEDEADYYCQSYNGTYVFGGGTKLTVLG |  |
| 109 |  |  | MOR06214 IgG (antibody, V domains shown, copies: 2 + 2) VH: QVQLVESGGGLVQPGGSLRLSCAASGFTFSSYAMNWVRQAPGKGLEWVSNIQRVGSTYYADSVKGRFTISRDNSKNTLYLQMNSLRAEDTAVYYCAREDGSYMTDYFAYWGQGTLVTVSS VL: DIELTQPPSVSVAPGQTARISCSGDNIGHYYVSWYQQKPGQAPVLVIYSDSNRPSGIPERFSGSNSGNTATLTISGTQAEDEADYYCQSYNGTYVFGGGTKLTVLG |  |
| 144 |  | 7.15 | MOR06200 IgG (antibody, V domains shown, copies: 2 + 2) VH: QVQLVESGGGLVQPGGSLRLSCAASGFTFSSYYMNWVRQAPGKGLEWVSAISNNGNVTYYADSVKGRFTISRDNSKNTLYLQMNSLRAEDTAVYYCARDLPLVYTGFAYWGQGTLVTVSS VL: DIELTQPPSVSVAPGQTARISCSGDNLRHYYVYWYQQKPGQAPVLVIYGDSKRPSGIPERFSGSNSGNTATLTISGTQAEDEADYYCQTYTGGASLVFGGGTKLTVLG |  |
| 150 |  | 10.6 | MOR06184 IgG (antibody, V domains shown) VH: QVQLVESGGGLVQPGGSLRLSCAASGFTFSSYYMNWVRQAPGKGLEWVSAISHDGNVKYYADSVKGRFTISRDNSKNTLYLQMNSLRAEDTAVYYCARDLPLVYTGFAYWGQGTLVTVSS VL: DIELTQPPSVSVAPGQTARISCSGDNLRHYYVYWYQQKPGQAPVLVIYGDSKRPSGIPERFSGSNSGNTATLTISGTQAEDEADYYCQTYTGGASLVFGGGTKLTVLG |  |
| 106 |  | 8.91 | MOR06183 IgG (antibody, V domains shown) VH: QVQLVESGGGLVQPGGSLRLSCAASGFTFSSYYMNWVRQAPGKGLEWVSGINMESTRIYYADSVKGRFTISRDNSKNTLYLQMNSLRAEDTAVYYCARDLPLVYTGFAYWGQGTLVTVSS VL: DIELTQPPSVSVAPGQTARISCSGDNLRHYYVYWYQQKPGQAPVLVIYGDSKRPSGIPERFSGSNSGNTATLTISGTQAEDEADYYCQTYTGGASLVFGGGTKLTVLG |  |
| 117 |  | 15.6 | MOR06186 IgG (antibody, V domains shown) VH: QVQLVESGGGLVQPGGSLRLSCAASGFTFSSYYMNWVRQAPGKGLEWVSAINLSGSAKYYADSVKGRFTISRDNSKNTLYLQMNSLRAEDTAVYYCARDLPLVYTGFAYWGQGTLVTVSS VL: DIELTQPPSVSVAPGQTARISCSGDNLRHYYVYWYQQKPGQAPVLVIYGDSKRPSGIPERFSGSNSGNTATLTISGTQAEDEADYYCQTYTGGASLVFGGGTKLTVLG |  |
| 140 |  | 20.1 | MOR06188 IgG (antibody, V domains shown) VH: QVQLVESGGGLVQPGGSLRLSCAASGFTFSSYYMNWVRQAPGKGLEWVSAISTNGWQTYYADSVKGRFTISRDNSKNTLYLQMNSLRAEDTAVYYCARDLPLVYTGFAYWGQGTLVTVSS VL: DIELTQPPSVSVAPGQTARISCSGDNLRHYYVYWYQQKPGQAPVLVIYGDSKRPSGIPERFSGSNSGNTATLTISGTQAEDEADYYCQTYTGGASLVFGGGTKLTVLG |  |
| 145 |  | 9.37 | MOR06187 IgG (antibody, V domains shown) VH: QVQLVESGGGLVQPGGSLRLSCAASGFTFSSYYMNWVRQAPGKGLEWVSAISSNGDITYYADSVKGRFTISRDNSKNTLYLQMNSLRAEDTAVYYCARDLPLVYTGFAYWGQGTLVTVSS VL: DIELTQPPSVSVAPGQTARISCSGDNLRHYYVYWYQQKPGQAPVLVIYGDSKRPSGIPERFSGSNSGNTATLTISGTQAEDEADYYCQTYTGGASLVFGGGTKLTVLG |  |
| 142 |  | 11.5 | MOR06185 IgG (antibody, V domains shown) VH: QVQLVESGGGLVQPGGSLRLSCAASGFTFSSYYMNWVRQAPGKGLEWVSAISMNGDYISYADSVKGRFTISRDNSKNTLYLQMNSLRAEDTAVYYCARDLPLVYTGFAYWGQGTLVTVSS VL: DIELTQPPSVSVAPGQTARISCSGDNLRHYYVYWYQQKPGQAPVLVIYGDSKRPSGIPERFSGSNSGNTATLTISGTQAEDEADYYCQTYTGGASLVFGGGTKLTVLG |  |
|  | 43 |  | MOR03129 Fab (Fab, V domains shown, Fab format) VH: QVQLVESGGGLVQPGGSLRLSCAASGFTFSNYSMNWVRQAPGKGLEWVSYIYGGGSYTYYADSVKGRFTISRDNSKNTLYLQMNSLRAEDTAVYYCARQAGMYFDVWGQGTLVTVSS VL: DIELTQPPSVSVAPGQTARISCSGDNLGSKVVSWYQQKPGQAPVLVIYYDNKRPSGIPERFSGSNSGNTATLTISGTQAEDEADYYCQSYTFESGSVVFGGGTKLTVLG |  |
|  | 451 |  | MOR03131 Fab (Fab, V domains shown, Fab format) VH: QVQLKESGPALVKPTQTLTLTCTFSGFSLSNSGVGVGWIRQPPGKALEWLADIYSDTTKRYSTSLKTRLTISKDTSKNQVVLTMTNMDPVDTATYYCARYGEAYFDYWGQGTLVTVSS VL: DIELTQPPSVSVAPGQTARISCSGDNLGNFYVHWYQQKPGQAPVLVIYEDSNRPSGIPERFSGSNSGNTATLTISGTQAEDEADYYCSSWDMYRTIFVFGGGTKLTVLG |  |
